Starred links: 1 amine or outer side, 2 acyl side, 3 side chain; linkers in the order of their positions; H or OH if unused. Non-standard residues stand in square brackets, D forms with d. Groups on a side chain read outwards from the residue. No end group written: not given here. *: point of attachment. C18 diacid = O=C(O)CCCCCCCCCCCCCCCCC(=O)*; γGlu = O=C(O)[C@H](CCC(=O)[*:2])N[*:1]; AEEA = NCCOCCOCC(=O)O; Aib = CC(C)(N)C(=O)O
B1: SEQ ID NO: 94 (peptide)
peptide: IVLSLDVPIKLK([AEEA-AEEA-γGlu-C18 diacid])KILLKQERQKKEREQAETNKQILAQV-NH2
modifications: N-terminus assumed
SMILES: CC[C@H](C)[C@H](N)C(=O)N[C@H](C(=O)N[C@@H](CC(C)C)C(=O)N[C@@H](CO)C(=O)N[C@@H](CC(C)C)C(=O)N[C@@H](CC(=O)O)C(=O)N[C@H](C(=O)N1CCC[C@H]1C(=O)N[C@H](C(=O)N[C@@H](CCCCN)C(=O)N[C@@H](CC(C)C)C(=O)N[C@@H](CCCCNC(=O)COCCOCCNC(=O)COCCOCCNC(=O)CC[C@H](NC(=O)CCCCCCCCCCCCCCCCC(=O)O)C(=O)O)C(=O)N[C@@H](CCCCN)C(=O)N[C@H](C(=O)N[C@@H](CC(C)C)C(=O)N[C@@H](CC(C)C)C(=O)N[C@@H](CCCCN)C(=O)N[C@@H](CCC(N)=O)C(=O)N[C@@H](CCC(=O)O)C(=O)N[C@@H](CCCNC(=N)N)C(=O)N[C@@H](CCC(N)=O)C(=O)N[C@@H](CCCCN)C(=O)N[C@@H](CCCCN)C(=O)N[C@@H](CCC(=O)O)C(=O)N[C@@H](CCCNC(=N)N)C(=O)N[C@@H](CCC(=O)O)C(=O)N[C@@H](CCC(N)=O)C(=O)N[C@@H](C)C(=O)N[C@@H](CCC(=O)O)C(=O)N[C@H](C(=O)N[C@@H](CC(N)=O)C(=O)N[C@@H](CCCCN)C(=O)N[C@@H](CCC(N)=O)C(=O)N[C@H](C(=O)N[C@@H](CC(C)C)C(=O)N[C@@H](C)C(=O)N[C@@H](CCC(N)=O)C(=O)N[C@H](C(N)=O)C(C)C)[C@@H](C)CC)[C@@H](C)O)[C@@H](C)CC)[C@@H](C)CC)C(C)C)C(C)C
B2: SEQ ID NO: 92 (peptide)
peptide: IVLSLDVPIKLK([AEEA-AEEA-γGlu-C18 diacid])QKLLEQERQKKQREQAETN[Aib]QILAQV-NH2
modifications: N-terminus assumed
SMILES: CC[C@H](C)[C@H](N)C(=O)N[C@H](C(=O)N[C@@H](CC(C)C)C(=O)N[C@@H](CO)C(=O)N[C@@H](CC(C)C)C(=O)N[C@@H](CC(=O)O)C(=O)N[C@H](C(=O)N1CCC[C@H]1C(=O)N[C@H](C(=O)N[C@@H](CCCCN)C(=O)N[C@@H](CC(C)C)C(=O)N[C@@H](CCCCNC(=O)COCCOCCNC(=O)COCCOCCNC(=O)CC[C@H](NC(=O)CCCCCCCCCCCCCCCCC(=O)O)C(=O)O)C(=O)N[C@@H](CCC(N)=O)C(=O)N[C@@H](CCCCN)C(=O)N[C@@H](CC(C)C)C(=O)N[C@@H](CC(C)C)C(=O)N[C@@H](CCC(=O)O)C(=O)N[C@@H](CCC(N)=O)C(=O)N[C@@H](CCC(=O)O)C(=O)N[C@@H](CCCNC(=N)N)C(=O)N[C@@H](CCC(N)=O)C(=O)N[C@@H](CCCCN)C(=O)N[C@@H](CCCCN)C(=O)N[C@@H](CCC(N)=O)C(=O)N[C@@H](CCCNC(=N)N)C(=O)N[C@@H](CCC(=O)O)C(=O)N[C@@H](CCC(N)=O)C(=O)N[C@@H](C)C(=O)N[C@@H](CCC(=O)O)C(=O)N[C@H](C(=O)N[C@@H](CC(N)=O)C(=O)NC(C)(C)C(=O)N[C@@H](CCC(N)=O)C(=O)N[C@H](C(=O)N[C@@H](CC(C)C)C(=O)N[C@@H](C)C(=O)N[C@@H](CCC(N)=O)C(=O)N[C@H](C(N)=O)C(C)C)[C@@H](C)CC)[C@@H](C)O)[C@@H](C)CC)C(C)C)C(C)C
B3: SEQ ID NO: 93 (peptide)
peptide: IVLSLDVPIKLK([AEEA-AEEA-γGlu-C18 diacid])QKLLKQERQKKQREKAKTNVQILAQV-NH2
modifications: N-terminus assumed
SMILES: CC[C@H](C)[C@H](N)C(=O)N[C@H](C(=O)N[C@@H](CC(C)C)C(=O)N[C@@H](CO)C(=O)N[C@@H](CC(C)C)C(=O)N[C@@H](CC(=O)O)C(=O)N[C@H](C(=O)N1CCC[C@H]1C(=O)N[C@H](C(=O)N[C@@H](CCCCN)C(=O)N[C@@H](CC(C)C)C(=O)N[C@@H](CCCCNC(=O)COCCOCCNC(=O)COCCOCCNC(=O)CC[C@H](NC(=O)CCCCCCCCCCCCCCCCC(=O)O)C(=O)O)C(=O)N[C@@H](CCC(N)=O)C(=O)N[C@@H](CCCCN)C(=O)N[C@@H](CC(C)C)C(=O)N[C@@H](CC(C)C)C(=O)N[C@@H](CCCCN)C(=O)N[C@@H](CCC(N)=O)C(=O)N[C@@H](CCC(=O)O)C(=O)N[C@@H](CCCNC(=N)N)C(=O)N[C@@H](CCC(N)=O)C(=O)N[C@@H](CCCCN)C(=O)N[C@@H](CCCCN)C(=O)N[C@@H](CCC(N)=O)C(=O)N[C@@H](CCCNC(=N)N)C(=O)N[C@@H](CCC(=O)O)C(=O)N[C@@H](CCCCN)C(=O)N[C@@H](C)C(=O)N[C@@H](CCCCN)C(=O)N[C@H](C(=O)N[C@@H](CC(N)=O)C(=O)N[C@H](C(=O)N[C@@H](CCC(N)=O)C(=O)N[C@H](C(=O)N[C@@H](CC(C)C)C(=O)N[C@@H](C)C(=O)N[C@@H](CCC(N)=O)C(=O)N[C@H](C(N)=O)C(C)C)[C@@H](C)CC)C(C)C)[C@@H](C)O)[C@@H](C)CC)C(C)C)C(C)C
B4: SEQ ID NO: 91 (peptide)
peptide: IVLSLDVPIKLK([AEEA-AEEA-γGlu-C18 diacid])QKLLKQERQKKQREKAKTN[Aib]QILAQV-NH2
modifications: N-terminus assumed
SMILES: CC[C@H](C)[C@H](N)C(=O)N[C@H](C(=O)N[C@@H](CC(C)C)C(=O)N[C@@H](CO)C(=O)N[C@@H](CC(C)C)C(=O)N[C@@H](CC(=O)O)C(=O)N[C@H](C(=O)N1CCC[C@H]1C(=O)N[C@H](C(=O)N[C@@H](CCCCN)C(=O)N[C@@H](CC(C)C)C(=O)N[C@@H](CCCCNC(=O)COCCOCCNC(=O)COCCOCCNC(=O)CC[C@H](NC(=O)CCCCCCCCCCCCCCCCC(=O)O)C(=O)O)C(=O)N[C@@H](CCC(N)=O)C(=O)N[C@@H](CCCCN)C(=O)N[C@@H](CC(C)C)C(=O)N[C@@H](CC(C)C)C(=O)N[C@@H](CCCCN)C(=O)N[C@@H](CCC(N)=O)C(=O)N[C@@H](CCC(=O)O)C(=O)N[C@@H](CCCNC(=N)N)C(=O)N[C@@H](CCC(N)=O)C(=O)N[C@@H](CCCCN)C(=O)N[C@@H](CCCCN)C(=O)N[C@@H](CCC(N)=O)C(=O)N[C@@H](CCCNC(=N)N)C(=O)N[C@@H](CCC(=O)O)C(=O)N[C@@H](CCCCN)C(=O)N[C@@H](C)C(=O)N[C@@H](CCCCN)C(=O)N[C@H](C(=O)N[C@@H](CC(N)=O)C(=O)NC(C)(C)C(=O)N[C@@H](CCC(N)=O)C(=O)N[C@H](C(=O)N[C@@H](CC(C)C)C(=O)N[C@@H](C)C(=O)N[C@@H](CCC(N)=O)C(=O)N[C@H](C(N)=O)C(C)C)[C@@H](C)CC)[C@@H](C)O)[C@@H](C)CC)C(C)C)C(C)C
B5: SEQ ID NO: 90 (peptide)
peptide: IVLSLDVPIKLK([AEEA-AEEA-γGlu-C18 diacid])QILLKQERQKKQREKAKTNVQILAQV-NH2
modifications: N-terminus assumed
SMILES: CC[C@H](C)[C@H](N)C(=O)N[C@H](C(=O)N[C@@H](CC(C)C)C(=O)N[C@@H](CO)C(=O)N[C@@H](CC(C)C)C(=O)N[C@@H](CC(=O)O)C(=O)N[C@H](C(=O)N1CCC[C@H]1C(=O)N[C@H](C(=O)N[C@@H](CCCCN)C(=O)N[C@@H](CC(C)C)C(=O)N[C@@H](CCCCNC(=O)COCCOCCNC(=O)COCCOCCNC(=O)CC[C@H](NC(=O)CCCCCCCCCCCCCCCCC(=O)O)C(=O)O)C(=O)N[C@@H](CCC(N)=O)C(=O)N[C@H](C(=O)N[C@@H](CC(C)C)C(=O)N[C@@H](CC(C)C)C(=O)N[C@@H](CCCCN)C(=O)N[C@@H](CCC(N)=O)C(=O)N[C@@H](CCC(=O)O)C(=O)N[C@@H](CCCNC(=N)N)C(=O)N[C@@H](CCC(N)=O)C(=O)N[C@@H](CCCCN)C(=O)N[C@@H](CCCCN)C(=O)N[C@@H](CCC(N)=O)C(=O)N[C@@H](CCCNC(=N)N)C(=O)N[C@@H](CCC(=O)O)C(=O)N[C@@H](CCCCN)C(=O)N[C@@H](C)C(=O)N[C@@H](CCCCN)C(=O)N[C@H](C(=O)N[C@@H](CC(N)=O)C(=O)N[C@H](C(=O)N[C@@H](CCC(N)=O)C(=O)N[C@H](C(=O)N[C@@H](CC(C)C)C(=O)N[C@@H](C)C(=O)N[C@@H](CCC(N)=O)C(=O)N[C@H](C(N)=O)C(C)C)[C@@H](C)CC)C(C)C)[C@@H](C)O)[C@@H](C)CC)[C@@H](C)CC)C(C)C)C(C)C
B6: SEQ ID NO: 95 (peptide)
peptide: IVLSLDVPIKLK([AEEA-AEEA-γGlu-C18 diacid])QKLLKQERQKKEREQAETNKQILAQV-NH2
modifications: N-terminus assumed
SMILES: CC[C@H](C)[C@H](N)C(=O)N[C@H](C(=O)N[C@@H](CC(C)C)C(=O)N[C@@H](CO)C(=O)N[C@@H](CC(C)C)C(=O)N[C@@H](CC(=O)O)C(=O)N[C@H](C(=O)N1CCC[C@H]1C(=O)N[C@H](C(=O)N[C@@H](CCCCN)C(=O)N[C@@H](CC(C)C)C(=O)N[C@@H](CCCCNC(=O)COCCOCCNC(=O)COCCOCCNC(=O)CC[C@H](NC(=O)CCCCCCCCCCCCCCCCC(=O)O)C(=O)O)C(=O)N[C@@H](CCC(N)=O)C(=O)N[C@@H](CCCCN)C(=O)N[C@@H](CC(C)C)C(=O)N[C@@H](CC(C)C)C(=O)N[C@@H](CCCCN)C(=O)N[C@@H](CCC(N)=O)C(=O)N[C@@H](CCC(=O)O)C(=O)N[C@@H](CCCNC(=N)N)C(=O)N[C@@H](CCC(N)=O)C(=O)N[C@@H](CCCCN)C(=O)N[C@@H](CCCCN)C(=O)N[C@@H](CCC(=O)O)C(=O)N[C@@H](CCCNC(=N)N)C(=O)N[C@@H](CCC(=O)O)C(=O)N[C@@H](CCC(N)=O)C(=O)N[C@@H](C)C(=O)N[C@@H](CCC(=O)O)C(=O)N[C@H](C(=O)N[C@@H](CC(N)=O)C(=O)N[C@@H](CCCCN)C(=O)N[C@@H](CCC(N)=O)C(=O)N[C@H](C(=O)N[C@@H](CC(C)C)C(=O)N[C@@H](C)C(=O)N[C@@H](CCC(N)=O)C(=O)N[C@H](C(N)=O)C(C)C)[C@@H](C)CC)[C@@H](C)O)[C@@H](C)CC)C(C)C)C(C)C

What follows are binders tested against human corticotropin-releasing factor 2α (CRF2 α receptor) (human), Q13324 (assay: cell-based or functional assay).
Chain of human corticotropin-releasing factor 2α (CRF2 α receptor) (human), Q13324 (Q13324 20-411): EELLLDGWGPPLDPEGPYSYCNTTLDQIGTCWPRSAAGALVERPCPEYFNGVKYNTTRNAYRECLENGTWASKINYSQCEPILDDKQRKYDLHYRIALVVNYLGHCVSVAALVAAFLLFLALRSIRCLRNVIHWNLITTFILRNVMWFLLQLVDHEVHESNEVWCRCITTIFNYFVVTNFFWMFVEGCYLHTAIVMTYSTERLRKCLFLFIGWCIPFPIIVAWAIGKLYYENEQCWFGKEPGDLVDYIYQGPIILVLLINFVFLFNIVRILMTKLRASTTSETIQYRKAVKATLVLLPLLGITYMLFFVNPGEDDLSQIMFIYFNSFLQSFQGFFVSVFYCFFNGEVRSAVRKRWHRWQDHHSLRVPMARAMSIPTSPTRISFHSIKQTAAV

EC50 [nM], 0% HSA [nM]	EC50 [nM], 0.1% HSA [nM]	Binder
1.73	49.1	B1
9.17		B2
50.9		B3
14.3		B4
3.91	92.6	B5
25		B6

From patent publication US12679878B2, “CRF2 receptor agonists and their use in therapy” (SANOFI, priority 2020, dated 2026)
